Assay results: IntAct's records for PubMed 29892012

B1: Coiled-coil domain-containing protein 120 (Homo sapiens), Q96HB5-4 (parent)
chain: MRREPRYQGQVGPDIHTDSERTLSSHQPRPLDSTKMEVKGQLISSPTFNAPAALFGEAAPQVKSERLRGLLDRQRTLQEALSLKLQELRKVCLQEAELTGQLPPECPLEPGERPQLVRRRPPTARAYPPPHPNQAHHSLCPAEELALEALEREVSVQQQIAAAARRLALAPDLSTEQRRRRRQVQADALRRLHELEEQLRDVRARLGLPVLPLPQPLPLSTGSVITTQGVCLGMRLAQLSQEDVVLHSESSSLSESGASHDNEEPHGCFSLAERPSPPKAWDQLRAVSGGSPERRTPWKPPPSDLYGDLKSRRNSVASPTSPTRSLPRSASSFEGRSVPATPVLTRGAGPQLCKPEGLHSRQWSGSQDSQMGFPRADPASDRASLFVARTRRSNSSEALLVDRAAGGGAGSPPAPLAPSASGPPVCKSSEVLYERPQPTPAFSSRTAGPPDPPRAARPSSAAPASRGAPRLPPVCGDFLLDYSLDRGLPRSGGGTGWGELPPAAEVPGPLSRRDGLLTMLPGPPPVYAADSNSPLLRTKDPHTRATRTKPCGLPPEAAEGPEVHPNPLLWMPPPTRIPSAGERSGHKNLALEGLRDWYIRNSGLAAGPQRRPVLPSVGPPHPPFLHARCYEVGQALYGAPSQAPLPHSRSFTAPPVSGRYYADFLYPPELSARLSDLTLEGEQSSSSDTQTPGTLV
B2: Ribosome assembly protein METTL17, mitochondrial (Homo sapiens), Q9H7H0 (parent)
chain: MAAALKCLLTLGRWCPGLGVAPQARALAALVPGVTQVDNKSGFLQKRPHRQHPGILKLPHVRLPQALANGAQLLLLGSAGPTMENQVQTLTSYLWSRHLPVEPEELQRRARHLEKKFLENPDLSQTEEKLRGAVLHALRKTTYHWQELSYTEGLSLVYMAARLDGGFAAVSRAFHEIRARNPAFQPQTLMDFGSGTGSVTWAAHSIWGQSLREYMCVDRSAAMLVLAEKLLKGGSESGEPYIPGVFFRQFLPVSPKVQFDVVVSAFSLSELPSKADRTEVVQTLWRKTGHFLVLVENGTKAGHSLLMDARDLVLKGKEKSPLDPRPGFVFAPCPHELPCPQLTNLACSFSQAYHPIPFSWNKKPKEEKFSMVILARGSPEEAHRWPRITQPVLKRPRHVHCHLCCPDGHMQHAVLTARRHGRDLYRCARVSSWGDLLPVLTPSAFPPSTAQDPSES
partner: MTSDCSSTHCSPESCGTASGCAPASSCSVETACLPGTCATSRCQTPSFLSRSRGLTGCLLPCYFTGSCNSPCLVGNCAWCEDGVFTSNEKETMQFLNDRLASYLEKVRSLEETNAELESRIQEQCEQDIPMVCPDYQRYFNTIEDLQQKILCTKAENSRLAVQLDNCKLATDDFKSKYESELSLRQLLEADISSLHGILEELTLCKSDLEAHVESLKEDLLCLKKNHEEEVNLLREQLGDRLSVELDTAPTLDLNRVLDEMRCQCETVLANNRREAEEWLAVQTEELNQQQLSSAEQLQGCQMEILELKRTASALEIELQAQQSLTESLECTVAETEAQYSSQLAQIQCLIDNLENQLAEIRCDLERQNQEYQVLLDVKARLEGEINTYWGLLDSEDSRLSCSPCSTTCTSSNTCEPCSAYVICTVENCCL
B3: Ribosome assembly protein METTL17, mitochondrial (Homo sapiens), Q9H7H0 (parent)
chain: B2 chain
partner: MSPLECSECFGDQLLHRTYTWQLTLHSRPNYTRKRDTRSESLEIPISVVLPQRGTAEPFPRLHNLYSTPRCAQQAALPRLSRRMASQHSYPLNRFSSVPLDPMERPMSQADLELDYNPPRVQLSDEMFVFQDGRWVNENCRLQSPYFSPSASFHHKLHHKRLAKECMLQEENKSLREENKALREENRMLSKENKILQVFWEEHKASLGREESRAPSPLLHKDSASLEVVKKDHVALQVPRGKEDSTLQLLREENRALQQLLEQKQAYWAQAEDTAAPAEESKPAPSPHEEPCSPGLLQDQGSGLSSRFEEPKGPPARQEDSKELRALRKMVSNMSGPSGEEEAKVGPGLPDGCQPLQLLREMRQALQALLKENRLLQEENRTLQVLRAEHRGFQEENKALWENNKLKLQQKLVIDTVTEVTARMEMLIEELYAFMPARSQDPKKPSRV

Variants of: B1
Conditions: with cyh2_human CYTH2, Q99418
Sequence of cyh2_human CYTH2, Q99418 (Q99418 whole entry): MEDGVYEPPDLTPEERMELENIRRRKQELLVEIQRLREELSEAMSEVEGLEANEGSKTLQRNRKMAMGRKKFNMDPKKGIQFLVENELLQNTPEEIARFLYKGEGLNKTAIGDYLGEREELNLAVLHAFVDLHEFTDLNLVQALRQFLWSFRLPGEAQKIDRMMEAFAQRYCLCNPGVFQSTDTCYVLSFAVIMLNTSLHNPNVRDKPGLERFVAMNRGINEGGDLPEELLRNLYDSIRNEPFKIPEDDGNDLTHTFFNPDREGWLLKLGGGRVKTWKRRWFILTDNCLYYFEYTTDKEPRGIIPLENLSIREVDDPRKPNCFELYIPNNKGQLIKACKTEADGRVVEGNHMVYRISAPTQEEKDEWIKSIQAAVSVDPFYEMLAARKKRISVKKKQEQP
With R346W the “effect of a mutation on the interaction” value was “with no effect”.

Variants of: B1
Conditions: with mdfi_human MDFI
For R346W, the “effect of a mutation on the interaction” value was “with no effect”.

Variants of: B1
Conditions: with k1h1_human KRT31, Q15323
Sequence of k1h1_human KRT31, Q15323 (Q15323 whole entry): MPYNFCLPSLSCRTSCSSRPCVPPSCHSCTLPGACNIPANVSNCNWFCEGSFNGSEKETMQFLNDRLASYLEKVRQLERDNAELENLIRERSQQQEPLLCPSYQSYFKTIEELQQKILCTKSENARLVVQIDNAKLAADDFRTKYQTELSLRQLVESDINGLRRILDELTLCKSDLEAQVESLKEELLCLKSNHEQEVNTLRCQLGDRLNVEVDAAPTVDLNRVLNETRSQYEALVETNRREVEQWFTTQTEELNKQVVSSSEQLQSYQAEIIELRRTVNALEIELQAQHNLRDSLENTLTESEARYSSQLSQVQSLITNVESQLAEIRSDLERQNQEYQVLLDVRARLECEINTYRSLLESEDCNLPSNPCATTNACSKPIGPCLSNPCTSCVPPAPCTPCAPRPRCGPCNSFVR
R346W was tested, and the “effect of a mutation on the interaction” value was “with no effect”.

Variants of: B1
Conditions: with KRT15, P19012
Sequence of KRT15, P19012 (P19012 whole entry): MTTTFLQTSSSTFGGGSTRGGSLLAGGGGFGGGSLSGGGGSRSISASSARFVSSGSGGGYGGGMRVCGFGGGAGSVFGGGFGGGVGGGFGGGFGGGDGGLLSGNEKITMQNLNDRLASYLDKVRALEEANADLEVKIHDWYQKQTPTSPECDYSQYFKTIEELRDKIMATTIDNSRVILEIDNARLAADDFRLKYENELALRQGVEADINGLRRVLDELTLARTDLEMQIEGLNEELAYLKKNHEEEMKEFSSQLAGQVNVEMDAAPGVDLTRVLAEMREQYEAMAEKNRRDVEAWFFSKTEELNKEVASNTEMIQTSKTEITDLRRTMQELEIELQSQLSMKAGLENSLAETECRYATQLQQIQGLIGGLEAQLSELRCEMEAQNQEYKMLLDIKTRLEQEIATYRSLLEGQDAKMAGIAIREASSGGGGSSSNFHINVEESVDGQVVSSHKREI
R346W was tested, and the “effect of a mutation on the interaction” value was “with no effect”.

Variants of: B2
Conditions: with KRT40, Q6A162
With R212H the “effect of a mutation on the interaction” value was “with no effect”.

Variants of: B3
Conditions: with cby2_human CBY2, Q8NA61
In the case of R212H, the “effect of a mutation on the interaction” value is reported as “with no effect”.
